These results are taken from article PMC10605006, “RNA structure and multiple weak interactions balance the interplay between RNA binding and phase separation of SARS-CoV-2 nucleocapsid”.

Data set [1] deals with NTD (SARS-CoV-2, UniProt P0DTC9 47-174). In words: fluorescence anisotropy; 1:1 fit; Anisotropy: 50 mM Na phosphate pH 6.5, 150 mM NaCl, 1 mM NaN3, 50 nM RNA; EMSA: 20 mM Tris pH 7.5, 150 mM NaCl, 1 mM DTT, room temp, 25 uM RNA; NTD NMR: 20 mM Na phosphate pH 6.5, 20 mM NaCl, 25 C; CTD NMR: 20 mM Na phosphate pH 6, 200 mM NaCl. Conditions: protein: recombinant; tags: none (tag removed by bdSENP1); label: 5',6-carboxyfluorescein (6-FAM) for anisotropy; unlabeled for NMR; single strand, no self-pairing. (Polarisation of emitted light reports the rotation of a fluorescent probe.)

The target of data set [2] is FL-N (nucleocapsid, full length) (SARS-CoV-2, UniProt P0DTC9 1-419). In words: fluorescence anisotropy; fit with locked stoichiometry n=4 RNA:FL-N; authors call it an estimate; Anisotropy: 50 mM Na phosphate pH 6.5, 150 mM NaCl, 1 mM NaN3, 50 nM RNA; EMSA: 20 mM Tris pH 7.5, 150 mM NaCl, 1 mM DTT, room temp, 25 uM RNA; NTD NMR: 20 mM Na phosphate pH 6.5, 20 mM NaCl, 25 C; CTD NMR: 20 mM Na phosphate pH 6, 200 mM NaCl. Conditions: protein: recombinant; tags: His-tag (TALON, imidazole eluted); chain copies: 2; label: 5',6-carboxyfluorescein (6-FAM) for anisotropy; unlabeled for NMR; single strand, no self-pairing.

Turning to GGCACAUGGACGUC (ssRNA) [ss-14mer], the equilibrium dissociation constant (Kd) (usually the constant that tells how readily two partners part at equilibrium) was 22 µM in data set [1] and ~80 nM in data set [2].
